# Data published in the nanobody polyreactivity screen of Harvey et al. (2022).
# Assay: yeast display, Sf9 membrane polyspecificity reagent, FACS + sequencing; frameworks hold sequencing errors
# How it was run: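 Polyreactivity labels are assigned by the sorting gate from which each nanobody was recovered. The gates were low and high (top ~1%), set on anti-HA fluorescence for expression and streptavidin fluorescence for reagent binding. Before sorting, galactose-induced (36–48 hours) yeast display cells were stained for 1 hour at 4 °C with 10% biotinylated, detergent-solubilized Sf9 membrane reagent.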
row,Sequence,polyreactivity (PSR sort gate)
1,QVQLVESGGGLVQAAGSLRLSCAASGLTFGGYPMGWYRQAPGKERELVAAISRSCGSTYYADSVKGRFTISRDNAKNTVYLQMNSLKPEDTAVSYCNAGRDTKYDYWGQGTQVTVSS,low polyreactivity
2,QVQLVESGGGLVQAAGSLRLSCAASGLTFRVNDMGWYRQAPGKERELVATISSGGSTYYADSVKGRFTISRDNAKNTVYLQMNSLKAVDTAVYYCATNSEGQESNSYYVWMGYWGQGTKVTVSS,low polyreactivity
3,QVQLVESGGGLVQAAGSLRLSCAASGRTFRAYAMGWYRQAPGKERELVAAISNRGTRTYYADSVKGRFTISRDNAKNTVYLQMNSLKPEDTAVYYCAAGNRVNRFDYWGQGTQVTVSS,high polyreactivity
4,QVQLVESGGGLVQAAGSLRLSCAASGSIFLSYAMGWYRQAPGKERELVAAITTDGGTNYADSVKGRFTISRDNAKNTVYLQMNSLKPEDSAVYYCAADSDPIPLIDYTLPMDYWGQGTQVTVSS,low polyreactivity
5,QVQLVESGGGLVQAAGSLRLTCAASGRTFYDNVKGWYRQAPGKERELVAAISSGGSTNYADSVKGRFTISRDNAKNTVYLQMNSLKPEDTAVYYCATTGGGGWAYEYWGQGTQVTVSS,low polyreactivity
6,QVQLVESGGGLVQAARSLRLSCAASGRIFNYYAMGWYRLAPGKERELVAAINSGGSTYADSVKGRFTISRDNAKNTVYLPMNSLKPEDTAVYYCAKDGQLQSGRERPSGYDHWGQGTQVTVSS,low polyreactivity
7,QVQLVESGGGLVQAGARLRLSCAASGSILPTNAMGWYRQAPGKERELVASITYNGGRTSYADSVKWRFTISRDNAKNTVYLQMNSLKPEDTAVYYCAARVWYQGYKSMGYWGQGTQVPVSS,high polyreactivity
8,QVQLVESGGGLVQAGASLRISCAASGRIFGRNAMGWYRQEPGIEREFVARIRTSGGSTYNADSVKGRFTISRDNAKNTVYLQMNSLKPEDTAVYYCAAAVYTSARGYDYWGQGTQVTLSS,high polyreactivity
9,QVQLVESGGGLVQAGASLRLICAASGYTSSGYAMGRYRHAPGKERELVAAISADGGSTYYADSVKGRFTISRDNAKNTVYLQMNSLKPEDTAVYYCAKYTYPYTPYSWWYDYWGQGTQVTVSS,low polyreactivity
10,QVQLVESGGGLVQAGASLRLSCAASGFIFNQYAMGWYRQAPGKERELVAGITWRGGRTYYADSVKGRFTISRDNAKNTVYLQMNSLKPEDTAVYYCAADVAHYNGGEYYYWGQGTQVTVSS,high polyreactivity
11,QVQLVESGGGLVQAGASLRLSCAASGGIFDLYAMGWYRQAPGKERELVAAITRSGSSTFYADSVKGRFTISRDNAKNTVYLQMNSLKPEDSAVYYCNARYCWYGTYGGDYWGQGTQVTVSS,low polyreactivity
12,QVQLVESGGGLVQAGASLRLSCAASGIIFYANAMGWYRQAPGTERELVAAITFSGGSTYYADSVKGRFTISRDNAKNTVYLQMNSLKPEDTAVYYCAADKRFIPPHPHPLEFDYWGQGTQVTVSS,low polyreactivity
13,QVQLVESGGGLVQAGASLRLSCAASGITLYLYDMGWYRQAPGKERELVASITSDGSTDYADSVKGRFTISRDNAKNTVFLQMNSLKPEDTAVYYCIARVTYSWYRFGRSGDDSWGQGSQVTVSS,low polyreactivity
14,QVQLVESGGGLVQAGASLRLSCAASGRIFHHNVMGWYIQAPGKERELVAAISQSGGSTYYADSVKGRFTISRDNAKNTVYLQMNSLKPEDTAVYYCNDGAAGRRYNYWGQGTQVTVSS,low polyreactivity
15,QVQLVESGGGLVQAGASLRLSCAASGRTFTQYAMGWYRQAPGKERELVAAISRSGGTTYYADSVKGRFTISRENAKNTVYLQMNSLKPEDTAVYYCAARWWYRYNYDYWGQGTQVTVSS,high polyreactivity
16,QVQLVESGGGLVQAGASLRLSCAASGRTFYQNGMGWYRQAPGKERELVAVISSGGNTDYADSVKGRFTMSRDNAKNTVYLQMNSLKPEDTAVYYCNADVRPAYTYDYWGQGTQVTVSS,low polyreactivity
17,QVQLVESGGGLVQAGASLRLSCAASGSIFDPYAMGWYRQAPGKERQLVAAITYSVGGTTYYADSVKGRFTISRDNAKNTVYLQMNSLKPEDTAVYYCAAEWWGTPFDYWGQGTQVTVSS,high polyreactivity
18,QVQLVESGGGLVQAGASLRLSCAASGSISKSYAMGWYRQAPGKERELVAAISSRGGSTYADSVKGRFTISRDNAKNTVYLQMNSLKPEDTAVYYCAATNYGTFWGGQSERYDYWGQGTQVTVSS,low polyreactivity
19,QVQLVESGGGLVQAGASLRLSCAASGSNFWFYAMGWYRQAPGKERELVAVISNSGSTYYADSVKGRFTFSRDNAQNTVYLQMNSLKAEDTAVYYCNKDGGGDSYWYDYWGQGTQVTVSS,low polyreactivity
20,QVQLVESGGGLVQAGASLRLSCAASGSTFYIYAMGWYRQAPGKERELVAGISSGSTYYADSVKGRFTISRDNAKNTVYLQMNSLKPEVTAVYYCAVDSYYFLKDPISYGLYYYWGQGTQVTVSS,low polyreactivity

row,Sequence,polyreactivity (PSR sort gate)
1,QVQLVESGGGLVQAGASLRLSCAASGSTQGWYAMGRYRQAPGKERELVAAISWSGSSTYYADSVKGRFTISRDTAKNTVYLQMNSLKPEDTAVYYCATTSSEVGELRICDYWGQGTQVTVSS,low polyreactivity
2,QVQLVESGGGLVQAGASLRLSCAGSGLIFTTYAMGWYRQAAGKERELVADINSDGSTYYADSVKGRFTISRDNAKNTVYLQMNSLKPEDTAVYYCAKDYVHQYGVYKVWANNYNYWGQGTQVTVSS,low polyreactivity
3,QVQLVESGGGLVQAGASLRLSCAPSGRIFGPNTMGWSRQAPGKEREVVAAITRRGGSTYYADSVKGRFTISRDNAKNTVYLQMNSLKPEDTAVYYCAAVGQKRSLGFSWGQGTQVTVSS,low polyreactivity
4,QVQLVESGGGLVQAGASLRLSRAASGLIFYRYAMGLYRPAPGKERELVAAITSGGSTYYADSVKGRFTISRDNAKNTVYLQMNSLKPEDTAVYYCAAFYVPTYYYSPYGYWGQGTQVTVSS,high polyreactivity
5,QVQLVESGGGLVQAGCILRLSCAASGRIFNYYTMGWYRQAPGKEMELVAAITRTGGNTYYADSVKGRFTISRDNAKNTVYLKMNSLEPEDTAVYDCNVVWLNQREYYYWGQGTHVTVSS,high polyreactivity
6,QVQLVESGGGLVQAGCRLRLSCAASGRTSPRYTMGWYRQAHGKERELVASITVSDGSTYYADSVKGRFTISRDNAKNTVYLQMNSLKPEDTAVYYCARPGYWYRYISTSKLHYYWGQGTQETVSS,low polyreactivity
7,QVQLVESGGGLVQAGCSHSLSCAASGSIFWNNAIGSFRQAPVKEREFVAGITGRGGSTYYADSVKGRFTISRDNAKNTVYLQMNSLKPEDTEVYYCATRYLVYRGKYDYWGQGTQVTVSS,high polyreactivity
8,QVQLVESGGGLVQAGCSLRLRSAASGSIFSGYAMGWYRQAPWKERELDAVISSTGDSTYYADSVKGRFTISRDYAKNTVYLQMNSLKPEDTAVYYCAAYHGPWKWTTRYGYWGQGTQVTVSS,low polyreactivity
9,QVQLVESGGGLVQAGCSLRLSCAASGFIFDDYDMGWYRQAPGKERELVAAISWSGGSTYYADSVKGRFTISRDNAKNTVYLQMNSLKPEDTAVFYCNADYYRSRYDYWGQGTQVTVSS,high polyreactivity
10,QVQLVESGGGLVQAGCSLRLSCAASGGTFYANAKGRYRQAPGIVRELVAAITSGGSTNYADSVKGRFTISRDNAKNTVYLEINSLKPEDTAVYYCNASAQRRYWHSYFRRYDYWGQGTQVTVSS,low polyreactivity
11,QVQLVESGGGLVQAGCSLRLSCAASGITFYGNAMGSYRQAPGKERELVAAISRRGGSTYYADSVKGRFTSSRDNAKNSVYLQMISLKPEDTAVYYCAARYYSWSFRFDYWGQGTQLTVSS,high polyreactivity
12,QVQLVESGGGLVQAGCSLRLSCAASGRIFGTNDMGWYRQAPGKERELVAAINGSDSSTYYADSVKGRFTISRDNAKNTVYFQMNSLKPEDTAVYYCNADWSGAPERSTDGYDYWGQGTQVTVSS,low polyreactivity
13,QVQLVESGGGLVQAGCSLRLSCAASGRIFLVNAMGWYRQAPGKERELVAAISYRSGRTYYADSVKGRFTISRDNAKNTVYLQMNSLKPEDTAVYYCAAYTNVADMEYWGQGTQVTVSS,high polyreactivity
14,QVQLVESGGGLVQAGCSLRLSCAASGRIFNDYAMGWYRQAPGKERELVAGISRRGGSTSYADSVKGRFTISRDNAKNTDYLQMNSQKAEDTAVYYCNADYWYDYYSTEYDYWGQGTQVTVSS,low polyreactivity
15,QVQLVESGGGLVQAGCSLRLSCAASGRIFWVNAMGWYRQAPGKERELVAVISSGGSTHYADSVKGRFTISRDNAKYTVSLQMNSLKPEDTAGYYCAADRYYVGYYYWGQGTQVTVSS,low polyreactivity
16,QVQLVESGGGLVQAGCSLRLSCAASGRIFYLYTLGWYRQAPGKERELVAAITRAGRTYYADSVKGRFTISRDNAKNTFYLQMNSLKPEDTGVYYCAAAFLSRVQGYDSWGQGTQVTVSS,high polyreactivity
17,QVQLVESGGGLVQAGCSLRLSCAASGRTFCYNSMGLYRQAPGKERELVAAISTSGGSTYYADSVKGRFTISRDNAKNTVYLQMNSLKPEDSAVYSCAADSHRSFSLYAYDSWGLGTQVTVSS,low polyreactivity
18,QVQLVESGGGLVQAGCSLRLSCAASGRTFGSYAMGWYRQAPGKERDLVAGITWRDGSTYYADSVKGRFTISRDNAKNTVYFQMNSLKPEDTAVYYCDKEAVRYYLFGMEYWGQGNQVTVSS,low polyreactivity
19,QVQLVESGGGLVQAGCSLRLSCAASGRTFSSYAMGWYRQSPGKERELVAAINRGGGSTYYADSVKGRFTISRDNAKNTVYLQMNSLKPEDTAVYYCNARSKRTYEYDYWGQGTQVTVSS,high polyreactivity
20,QVQLVESGGGLVQAGCSLRLSCAASGRTFYPYAMGWYRQAPRKERELVAAINWSGTSTYYADSVKGRFTISRDNAKNTVYLQMNSLKTEDTAVYYCAAKQYPVLHYSLTEADMDYWGQGTQVTVSS,low polyreactivity
